This note sets out measurements from the DeepSol protein solubility set.

The series in a line: soluble on expression in E. coli; label from the status in PepcDB or PDB records.
For the sequence “MKFNIRGENIEVTPALKEYVEKKLSKLERYFDTFPEIKVNLKVYSDKQRVEVTIPFTDLLLRAEETNSDMYAAIDLVVDKIERQIRKHKTKVNRKLREKGSIKTNFILPEAVAVLDEVEEDELELVRTKRFDLKPMDVEEAILQMDMLGHNFFVFTNADTNETNVVYGRKDGKYGLIETKLEHHHHHH”, the “soluble on expression in E. coli” value was “soluble”. Regarding “MGSDKIHHHHHHMIMEELAKKIEEEILNHVREPQIPDREVNLLDFGARGDGRTDCSESFKRAIEELSKQGGGRLIVPEGVFLTGPIHLKSNIELHVKGTIKFIPDPERYLPVVLTRFEGIELYNYSPLVYALDCENVAITGSGVLDGSADNEHWWPWKGKKDFGWKEGLPNQQEDVKKLKEMAERGTPVEERVFGKGHYLRPSFVQFYRCRNVLVEGVKIINSPMWCVHPVLSENVIIRNIEISSTGPNNDGIDPESCKYMLIEKCRFDTGDDSVVIKSGRDADGRRIGVPSEYILVRDNLVISQASHGGLVIGSEMSGGVRNVVARNNVYMNVERALRLKTNSRRGGYMENIFFIDNVAVNVSEEVIRINLRYDNEEGEYLPVVRSVFVKNLKATGGKYAVRIEGLENDYVKDILISDTIIEGAKISVLLEFGQLGMENVIMNGSRFEKLYIEGKALLK”, the “soluble on expression in E. coli” value is on record as “not soluble”.

Consider “MPKNKGKGGKNRRRGKNDSEGDKRELVFKEEGQEYGQVQRMLGNGRLDAYCFDGQKRLCHIRGKMRKKVWVNPGDIVLVSLRDFQDSKGDIILKYTPDEARALKSKGEIPETTKINE”, for which the “soluble on expression in E. coli” value is “soluble”. In the case of “MGSDKIHHHHHHMSVPTTMFRLTGRDYPPAKLSHASLIIIDAQKEYLSGPLKLSGMDEAVANIARLLDAARKSGRPIIHVRHLGTVGGRFDPQGPAGQFIPGLEPLEGEIVIEKRMPNAFKNTKLHETLQELGHLDLIVCGFMSHSSVSTTVRRAKDYGYRCTLVEDASATRDLAFKDGVIPAAQIHQCEMAVMADNFACVAPTASLI” it was “not soluble”. In the case of “MGSDKIHHHHHHMLEREGIEISLRTIQRDLNQIAQRFPIESNKAVPQGWRWQSDAPIQSLPHMTSSQAVTFMMVEEHLKHLLPPSLLDEMGPWFDLAKRSLSTQNNVRQWINRVRIVPASQPLIPPVVDRAAQQAIYEGLLQDKQIECVYRARVNQGEDKTYILNPLALVQKGAVIYLICTRHDKTEVQTFALHRFKSAKVLESRALHPVNFDIDHYIDSGALGFRVDYNQPTESIQLTLTMTEQTAKTFYESQLSKDQTITPIEENIVEVTATVPFTSQLVWWLRSFGKKLLHIEPVQVHNAVREIEPDSK” it was “not soluble”. In the case of “TCSQPNNFPAEIPLYKQSFKNWAGDIKVDDVWTCAPRSADEVVKVANWAKDNGYKVRARGMMHNWSPLTLAAGVSCPAVVLLDTTRYLTAMSIDASGPVAKVTAQAGITMEALLTGLEKAGLGVTAAPAPGDLTLGGVLAINGHGTAIPAKGERRLAGASYGSISNLVLSLTAVVYDKASGAYALRKFARNDPQIAPLLAHVGRSLIVEATLQAAPNQRLRCQSWFNIPYGEMFAAAGSGGRTFASYLDSAGRVEAIWFPFTSNPWLKVWTVTPNKPLFSRQTDKPFNYPFSDNLPDEVTDLANKILSLGDGKLTPAFGKAQFAAASAGLVATASWDLWGWSKNLLLYVKPTTLRVTANGYAVLTRRENVQRVLNEFVTFYQARVQAYQQQGRYPMNGPVEIRVTGLDDPSEAALSGGVAPALSAIRPRPDHPEWNVAVWLDILTLPGTPYANQFYREIEQWIEANFNGSYAAVRPEWSKGWGYTDQAAWADSAMLQTTIPNAFRAGQPAAANWDAAKAALAAYDPYRLFSSPLLDSLGL” it was “soluble”; in that of “MFDVVAVGELLIDFLPAGTNENGMPLFSSNPGGAPANVLAMLSKLGAKTAFIGKVGKDGFGQFLKATLDNAGIDTSNLLMSSSEMTTLAFVHLNEKGDRSFSFYRKHCADVSLDAGELDKDLLRTCHFLHFGAVSLTDEPSRTATLEAARIAKEAGAIISYDPNYRPALWSNEHEARKYMLKAVEYADLVKVSEEELWLLAESEDFSKGAHKLLAMGPSVVFVTCGEKGSYVFTGSCKANHCGYDVKVVDTTGAGDAFVGAMLWQLRGMSLEEISQICEQKWGELLAFSNAAGTIVATKKGAIPAMPDLDTINTFMRQFLEEK”, “soluble”; in that of “PNSKLARFHASSGTTGKPTVVGYTHKDIDNWAESLARALTSVGVGKEDILQVSYGYGLFTGGLGAHYGSEKVGATVLPTSSGNTERQLELMKDLGTTSIACTPSYFLYMIETARKEGINIRNDTKLRKGFFGAEPWSEELKRRIEEESGIKAYDIYGTSELSGPLFTECDEQ”, “not soluble”. For “MTDIPHDHPRYESLLAREKVAAGVKMGITSIQGLIAQGRGESFDYLIGERSTESALYAERAAVAALLLAENPVISVNGNVAALAPDKVVTLADITGARIEVNLFHRTDTRVHLIIEQLKASGAAEVLGKNPDASLELSHDRRLVSSKGIYTADVVLVPLEDGDRCEKLVEMGKTVITIDLNPLSRTSKTATISIVDNLTRALGNMAKFAQEMKKERKEELVKLITTYDNKRTLSEAISEIQEHLKTMAAETGLEHHHHHH”, the “soluble on expression in E. coli” value was “soluble”.

Turning to “MKLAVITDSSVYLPQDFVQREDLFILDIDITIDGKTYIEGKNLSLDEFYTKMAASKELPKTSQPNLAELDDLLTNLEEEAYTHVIGLFLSGGISGFHQNIQYLIAEHDKLEIAFPDTKITSSPMGLMVMEALKWGREEIAFEQILVNLQVMIDKTNAFIMVDDLNHLVKGGRLSNGSALLGNLLSIKPILYFTNGRIEVFEKVRTEKKAIKRLISIIDEVTADGSYMVYIIHANARGKAEDLQKRLVDHGYTKNLAIVPFNGVIATHLGEGAIALGAIPII”, the “soluble on expression in E. coli” value was “not soluble”. As for “MGHHHHHHSHMASRWQNMGTSVRRRSLQHQEQLEDSKELQPVVSHQETSVGALGSLCRQFQRRLPLRAVNLNLRAGPSWKRLETPEPGQQGLQAAARSAKSALGAVSQRIQESCQSGTKWLVETQVKARRRKRGAQKGSGSPTHSLSQKSTRLSGAAPAHSAADPWEKEHHRLSVRMGSHAHPLRRSRREAAFRSPYSSTEPLCSPSESDSDLEPVGAGIQHLQKLSQELDEAIMAEERKQALSDRQGFILKDVYASP”, the entry is “not soluble”; as for “EPEEEQITVLENGSWLIDGDTPVNKLKYVLSVDSFPGEEQGYYLTIAGLIMYILQRIPKTGDHMEFNGLRYEVVDMDGIRIDKVMVTKVP”, “soluble”. In the case of “MELTLQKYGSYEKFEQATGGSLLSKTRIWSHVRKYMVKEGCLGEIVVHLTEDLLSRASMTVVNGCPTLTINISTAREHWLEGMLRHEIGTHYFRGINNLQQPWNSWIGRKKHELKPNNPTEEGLASIHSVLFRKDPFLWRAALLYYTVYKASHMSFCELFKDIGKFVKDPNTRWDYCVRAKRGWTDTSEPGCFSKDQVYLDGVLQILRFRESIDFHLLTALGKVSYEDVDRLKELAVTENMRVPHFLHDHSRYMEHLERIMEVNELTDAELKNLI” it was “not soluble”; in that of “MAQRFTDEVAIVTGSSNGIGRATAILLASEGAKVTITGRNAERLEESRQALLKVGVPSGHINSVVADVTTGAGQDVLIDSTLKKFGKINILINNAGALIVDPEGKTNTSTGVETCLKTFQLNFQSVVEMTQKIRPHLANTHGEIVNVSSVGAGPAAENRFPYYSAAKAALDQYSRNTAIDLIPDGIRVNIVQPGFVATGFTTAASGMSPDASAKMYEGIGANTSCIPAGYCGRPEHLASVIAFLADRKASEYIVGQTIIADGGTTLVRGRNVALATRRAE”, “not soluble”; in that of “MKTFGLLGGLAYPSTAEYYLKINRQVHATLGKHHSAPLWIHSFDFEPIAQAQASGSWTILEEKLLQAALELERLGCQGLAIASNTMHLLAPALEGALSIPLVHIADSVGEESSLKGYKKLALLGTLFTMEKDFYASRLQERFDLEVITPAKEERNLVHECIYRELVNNIFTEDSRRDFIQIIHGLKERGAEAVILGCTEIPLLLEGASSPLPLLDTMELHVGSIVQSILEI”, “not soluble”. As for “MKSKVAIVRTKPSTVLEDYHRLMNLAEYQNYISKDVDTALKINISWHFFYPGSSTTPWQLEGVIRALKRDGYNPELIHGCHNRTVVIDAHLGERENKQINVIKAHNLRNIHLYEGEEWIDIREAVGDLTKKFLCLNEVYPKGFSIPKRFIGENIIHLPTVKTHVFTTTTGAMKNAFGGLLNEKRHWTHPVIHETLVDLLMIQKKIHKGIFAVMDGTFAGDGPGPRCMVPHVKNVLLASADQVAIDAVAAKLMGFDPLKDCKYIRLAHDAGLGCGDVRQIEIVGDVDALNENWNFVGPYKKMTFASKCQHLIYWGPLKKPVEWTLKTILAPWSYIASVVYHDMYWYPKNYGRVEEILNSDWGRLFANWEQLQLPADDLSVPGWEHVGDKPLKLDKETSKMIRKAFRVLGTAIREAPEFSAKKSKKACK”, the entry is “soluble”; as for “MSLTNQVTYLFFHGMKQISEHLFTTEEQAIIARSKAEGSYMKAPNGQATNLNKKQWAQVRTRAFREWFGDWENNPDEASKVRDANGEPLVVYHGTPISRDQAADRSKFRIADDWEIQTINAPFHTFRGGAYNGLIFTSLTEEKARSIGETRSMSIPDSEDGREQWTTDSYVYDLFVNARQPFDVKNPNAVKDILDALEGQLTAYDFYLGMEVPVSRKEAEKILEGGNSWRVVETPSMQEIIRSRGYDAIHALDEGVQYMAVFAPNQLKASGKYLYSERNTGVFSPGNNDIRFREVHHGVPASFTGYRSMKTETVRNDNIPAVLAALREKLEDTEQEWQDRILDYIAENYPTQTTVSAQTRSPEGLKEREAMKEGHHHHHH”, “soluble”.

On to “MAKISEIMLLQQPEQPALAIEVQTYMKGMSQAIGENFVRIDSLFKKQGEVTTDIPFVEYPDFESLTEDRIKMIIGLKSSKPLQGDEKIQSVILPARRIVVCLHRGNYNELAQLYNEMTEWIKTNGYKASGTSIEYYYSNPDVPEEEHVTRVEMPLL”, for which the “soluble on expression in E. coli” value was “not soluble”. As for “GFLSHLDIVSTFNDHLAQRHDLDPYTVTLTVREGGEVVYIGCRNSAQPLGHTFRIGMRLPAPFTATGKILLSDLGPGELRMLFSQFPQPLTSRSVAGLSQLEEELALTRARGYSIDDGQIREGMLCIGAAIRDYSGAASAGIAISLIRSEASDEKIASLGEELRTTANALSEKLGYRSQKD”, the entry is “soluble”; as for “MQVSGSSGNRIWDANLSQNLTYTWTPQTYSGFYYDLDTGEGSENMTIQLTEGSRSVQRNGLQYETRPIETNFEYGNWGSYQVIGFMAERYFAGYTENSNFVNDDISVISDGQLSKILIDSDDRKSLYTGSSLILEEGYSLNIVEVDVNGNTVWVQLEKDGDVIDNGFLSSNSNYVYETDLGDADDVPLIAVHLAQIFRGTETNAIFVEGIFQISDEYVQIENGDRFGKMEISSTSSSGIIMRNRDSFTLGRGDTVDIMGKLSFVVADSSELRFAPIVEISEPGTYELRLEHHHHHH”, “not soluble”; as for “MNNKLTPVSPGEMLAEEFLIPLGMSNYRLAKEIGVSAQRIGEIVTGKRAITVDTDLRLCRFFGLSDGWWLRLQVDYDIEMARGALEETLAKIRPWANTQEHGTPA”, “not soluble”. “MPVLHNRISNDALKAKMLAESEPRTTISFYKYFHIADPKATRDALYQLFTALNVFGRVYLAHEGINAQISVPASNVETFRAQLYAFDPALEGLRLNIALDDDGKSFWVLRMKVRDRIVADGIDDPHFDASNVGEYLQAAEVNAMLDDPDALFIDMRNHYEYEVGHFENALEIPADTFREQLPKAVEMMQAHKDKKIVMYCTGGIRCEKASAWMKHNGFNKVWHIEGGIIEYARKAREQGLPVRFIGKNFVFDERMGERISDEIIAHCHQCGAPCDSHTNCKNDGCHLLFIQCPVCAEKYKGCCSEICCEESALPPEEQRRRRAGRENGNKIFNKSRGRLNTTLGIPDPTE”: the “soluble on expression in E. coli” value is listed as “not soluble”.
